In article PMC6462504, “Dopamine transporter forms stable dimers in the live cell plasma membrane in a phosphatidylinositol 4,5-bisphosphate–independent manner” (The Journal of Biological Chemistry, 2019):

Target: the molecule itself
Test: single-molecule brightness analysis (TOCCSL); live CHO cells stably expressing mGFP–hDAT, TIRF microscopy of the plasma membrane, room temperature; mobile fraction only; also at low (~5/μm^2) and high (~40/μm^2) surface density and after cholesterol oxidase (2 units/ml, 30 min), MβCD (5 mM, 1 h) or m-3M3FBS (25 μM, 20 min): distribution unchanged

B1: human dopamine transporter fused to monomeric GFP (mGFP–hDAT) (natural protein, UniProt Q01959 1-620, looked up)
chain: MSKSKCSVGLMSSVVAPAKEPNAVGPKEVELILVKEQNGVQLTSSTLTNPRQSPVEAQDRETWGKKIDFLLSVIGFAVDLANVWRFPYLCYKNGGGAFLVPYLLFMVIAGMPLFYMELALGQFNREGAAGVWKICPILKGVGFTVILISLYVGFFYNVIIAWALHYLFSSFTTELPWIHCNNSWNSPNCSDAHPGDSSGDSSGLNDTFGTTPAAEYFERGVLHLHQSHGIDDLGPPRWQLTACLVLVIVLLYFSLWKGVKTSGKVVWITATMPYVVLTALLLRGVTLPGAIDGIRAYLSVDFYRLCEASVWIDAATQVCFSLGVGFGVLIAFSSYNKFTNNCYRDAIVTTSINSLTSFSSGFVVFSFLGYMAQKHSVPIGDVAKDGPGLIFIIYPEAIATLPLSSAWAVVFFIMLLTLGIDSAMGGMESVITGLIDEFQLLHRHRELFTLFIVLATFLLSLFCVTNGGIYVFTLLDHFAAGTSILFGVLIEAIGVAWFYGVGQFSDDIQQMTGQRPSLYWRLCWKLVSPCFLLFVVVVSIVTFRPPHYGAYIFPDWANALGWVIATSSMAMVPIYAAYKFCSLPGSFREKLAYAIAPEKDRELVDRGEVRQFTLRHWLKV
notes: human dopamine transporter (hDAT); XhoI/HindIII fragment of hDAT cDNA ligated into mGFP-C1, then cloned into pIB2; mGFP is fused to the cytosolic N terminus of hDAT; also called mEGFP–hDAT; mGFP–DAT; source: CHO cells stably expressing mGFP–hDAT (viral transduction, blasticidine selection), in the live cell plasma membrane; not shown: mGFP (eGFP with A206K), N-terminal, kept
stoichiometry N: 2
